Reference: the domain aggregation screens of Martell et al. (2025)

Test: soluble fraction after stress (log2 fold change); higher = more stays soluble; pooled small domains, quantitative proteomics
Settings: stress: pH 4
Procedure, shortened: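 Pooled custom libraries of small protein domains were stressed at pH 4 and then measured by high-throughput quantitative proteomics. The fold change in the amount of each domain that stays soluble after the acid stress serves as a measure of aggregation propensity. Fold changes are given on a log2 scale, and higher values mean more of the domain stayed soluble.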

In order of falling “soluble fraction (log2)” value:
1. HMTTTSGLIKTIQTGRRKLGMDDETYRALLADVSGGKTSSKDLNAYQLKEVLRRMREAGFRS  0.371
2. HMSGPMVPNVVGLSEEMARALLSDYSITIKHAHDGVIPKDRVASQLPLATTHAKVGSSVVLTIS  0.238
3. HMVDLEINGRQTLQFVANKYGIPVEKLATDLNIPSDRFGEKLGRLRRQYAFTMNDVRKSILKNK  0.215
4. HMDGEMRRKRILQLLSEQTKPLSGTALAKQFGVSRQVIVQDIALLKSKEPAIISTYRGYVLGR  0.142
5. HMNDTNEEAVLSIILKNPQATQGAIAKEVGASLSTVKRIMRNLQKSGKLRREGTNRNGSWVVTGQK  0.136
6. HMGMEENLLKERKQILMDIMKSKEYQPMKVKELAMVLNVPKEDREELRYVLNELMNEGKIVESKKGKFSIA  0.0605
7. HMSFDTFKKVFSNLVEKSGYSDAEIARRLGVNRSTISRWKSGEQSPPLPKVKEIANFFGVSPMVFVD  0.0603
8. HMFQPFFENLRKASIPVSLREYLTFLEGMKKGLVTYDIEAFYFLARAAMVKDERNIDKFDRAFSATFKG  0.0456
9. HMDEMEFQKYVDQNLKQKGISLTAEAKAELLLRLGGDTMLLHSAIEKLDLYGEKNLNLNDIKHLVSLNSDV  0.0232
10. HMGKEIEAPDFKNMTLKEAKIAAKEYKIRIKKGDEVVSEEVEKGRIVSQDPDAGTTIKTGSTVTVNISKGL  0.0135
11. HMEDESSIERYLGSGAIKGIGPSLAARIVKKFGKDTFRIIEQEPERLAEIKGISERKAMEISTLMEEK  0.0126
12. HMEVPNLIGMTDKDLQRTYFQLPIEAAGDGSVVIKQLPEPGEKVKEGSVIRVLLG  0.00722
13. HMGAVPKNYFPAVEKGLQDSVQKGLLAGYPVVGVKAILYDGSYHPVDSSEMAFKTATIQAFKKGFMEA  -0.0216
14. HMGHKKLTIELQDEIIVLPKELEKYNLTVSDDKTSLIYTYKSRGEKTGITDLLRDIKDAGLRLKDLITEQ  -0.0229
15. HMKKTVTDSVELLTFLKDIFTNTSTNKLRKMLTTGRVTVNNIVIHKAKHILVQNDVVEIGDK  -0.0253
16. HMGLVDSLEPLLRRVYEALPQRRSMTTERLAVAAGLDEESVKVALARLQLSAFVGVDERGWHRSL  -0.0455
17. HMKKRDANSQGTRLILFYMLQRLHTEYKLQGFVTYNQRRSFREIYDAYHALGGNGFGTAMWEEVKELDLK  -0.0682
18. HMSEVSEILTRARFFAGVKTDAELSTLLKIPYGTLIGWKTRKNIPESRIAQMALILGIRRDTLIPA  -0.11
19. HMQGRIYLNPDLAEKLRAQYAAYPHWSYLLHTENLGALVRKTESLGPMPSYSTILRYMHANDMRKRNKP  -0.149
20. HMNPMLEPAGEIRLSDGVLLRWQSERLPGDDTVRGPGSLYELGLYRVKVRVSAPQQGVRESSVELAGWRQV  -0.212
21. HMDEEQIASRRALIMRAAREIMETQGMEALSIRKIAAMIQQTPGIIYHYFSGKEELMLAVVQEGYH  -0.219
22. HMSASEKLFEARKNLNIVNVLGKNPVDRYDIVKILKHGDHYHIYDSKGNEGITYTNPKSLYPEAEFGEYQG  -0.228
23. HMPGEIKKIPINSISYQDLKQHPYFDAYLAKQVIKYRETKGRIENIEQFREATRAYQSLIEKVTPYLDFE  -0.268
24. HMLKFPIGTHVGKKKPSANLSLPNKHGVVIGHGERRNAKGAIMRFYIVETTHSSRPEEWAPGITYPL  -0.275
25. HMDRRDEYHQHLLRLLLSGEIRDKDELQRRKVKLSGEYGLAGVPKNSETLALVPPDRLPEVLDILR  -0.289
26. HMLKHEEIQEYIKEQINSGTWKPKAKLPSLRDMSELFSTSIGTVLTAYSALEKKHIIYSIPRSGYYVLG  -0.334
27. HMTNISDYILEEYYKNVYPNDLNTKRIVIPNKYEEYAGKYTYITIARMVTYEHDAKKALKVLHQQAT  -0.346
28. HMETLKLRDSGKEVQSLQELLQRQGLSAPMNGIFDEATKSSVIAFQKANGLDADGIVGYKSWETLFTAG  -0.349
29. HMKIVPEPGTVLIREYQEERHEVTVTLDGAFDYKGTLYSSLSEIARLITGTRWSGPVFFGLRS  -0.353
30. HMIESLKGILHKKDPTIAIIDVGGVRLSVNITLSTYEKLEEINSSIELLTYFNVREDAMELYG  -0.377
31. HMSNLLKNILDVLEKEGPLKARKIALLLDSTRTTITHTTINSELYKALDLEGLTKNEQNIWSYVT  -0.389
32. HMGDGYTYYYDDTVLALGFTKIGNDYYIFNTFSGKMYKDATMWVNDNPYGIKGGMHYFDASGKMFV  -0.439
33. HMEQVQQIPIEELFPFKEHPFKVLDDEAMQRTVESVAQYGVLAPLIARPRPEGGYEIISGHRRQHAAELYR  -0.445
34. HMDSALKDDLNAFVKKLDVESQTLFMRRYFLGESVSSLASRFEMSEDNVGVKLFRIRAKLKKYLTGKGYD  -0.445
35. HMVTTADIILEFYSRNPNATLTQAAQHVARATGTTYSRQAISAQLKRLEVAGLVERNGHVTV  -0.47
36. HMTAQLAAQERTHALDMFMGGYKFSSKPAENGVRAEFEKKNFTLEDGKFLGGDEFMKSLMENDDYKGAFV  -0.509
37. HMTYTMVAYGSQGDAVRQLQSELNRHGYQLDEDGVFGKKTRAAVRDYQKKNSLRLDGIAGDETWGSLLA  -0.522
38. HMNMSVVEKVIQQISNPGRDSLIPILQAVQEEEGFISRESVIEIGKALDLPASKIYGVATFYNQFR  -0.543
39. HMESIEAGTFELDNKTSIDISEDEANLLNKMFEELTETNSKDMYGVMVADEAGFNEILEFAKENL  -0.551
40. HMPRPLVAPMPGLIVRVTAVVGDSVDAGQGLVVMEAMKMENELRTTTAGVVKTVHVQPGVAVEKGALLIEF  -0.766
41. HMDFEEGAVKWFNTKKGYGFITRDQGDDIFVHFRNIKAQSRRSLTDGERVTFVVTEGDKGLQADHVSPV  -0.886
42. HMKMQPVISQGVLYINNVTDVRTIEVFDISGRIVADAAASTTVNIAHLNEGPYIVKVTTVNGIESIKILNK  -0.889
43. HMAPLQDENGDLTFSYNGKTYTVNVNSEEDRNSFAEDFNKENGKKFSWFKERAGLQHYVFYDTEM  -0.918
44. HMFMSKTAMVAIISEADKYGLFNIPEGLSVEKTADEIFEGHIEVDFDKLKNELDFVYKNEALEKQFQEN  -1
45. HMSRTLLVYVTGAVRQPGVYELPEGSRFFDAVKAAGDVLPYAVMEDINMAEPLSDGMKIHIPLDPEQ  -1.01
46. HMAQASEPMLALIRLKWWEEQINSPVKGDSLPLLSQLNSHISAGYLSRSQVTSLIQRWQDYA  -1.18
47. HMEYYWHQLKGLEVVNTRGESLGRVRRLLETGANDVLVLEGEQERLIPYVPDTIKQVDLAKGLIEVAWDRD  -1.23
48. HMEFEIGQEDSKKSVKQFLYNTLRLSHGQVTALKRQERGILLNGERVFVTALLQEGDRLSLLLE  -1.24
49. HMQARLPFSFAKRHGVILLAATGEGQSDVIYKSGFDIGALAEVRRFVAGEIALKEVDGPSFDRQLTLTYQN  -1.34
50. HMDNWLSGLAVEADRMILTQPGEVFDRLSRAFEATLIRRALASTGGRRIEAAHLLGIGRNTITRKIQDLGL  -1.45
51. HMSSRLEIEITSKIDDLSHTWRAVGAKQPKGNIKSSLLPSGVKVGETFRVEADFLLDGIEIVSVLPP  -1.52
52. HMTETELYDEVNRLIGLHLSERDRMILIMRDRDEFEIDAIAARTGLSEGNIRLILSRARRTVREAYRNNI  -1.6
53. HMADYSMDDNAWNAKKADIDEWFEANPDFSANKAITDGLFSIGDSQVEMRKRYWASIAGVFAGLPNSPIG  -1.78
54. HMTKNEFLQGLKEELEGRVTHSAIQENIRYYDDYISQEVLKGSTEEEVTESLGGPRIIARTIVDAAYD  -2.29
55. HMILESREKYLGEVLEVLVEEEKEGEYFGYSQNYLRVKFKLEEKNLINQLINIKIKSIEDDILIGEKEN  -2.36
